Assay results from patent publication US20230272055A1, “ANTI-MUTANT CALRETICULIN (CALR) ANTIBODIES AND USES THEREOF” (Incyte Corporation, priority 2021, published 2023).

System: BaF3 cells expressing MPL/mutCALR Type 1
Assay: Example 16 inhibition of cell proliferation, CellTiter-Glo 72 hours
Assay type: cell-based
Method: The ability of the five antibodies shown here to inhibit cell proliferation was tested. Inhibition of cell proliferation was assessed using engineered BaF3 cells expressing MPL/mutCALR Type 1. Cells were plated at 5,000 cells per well in RPMI 1640+2% FBS, antibodies were added and incubated for 72 hours, followed by assessment of cell viability using the CellTiter-Glo Luminescent Cell Viability Assay (Promega, Madison, Wis.) and Top Count (Perkin Elmer, Boston, Mass.) or Pherastar (BMG Labtech, Ortenberg, Germany) for luminescence quantification. […] The data shown in FIGS. 21A and 21B were compiled from different experiments.

IC50 for anti-mutCALR antibody mediated inhibition of cell proliferation (BaF3 cells expressing MPL/mutCALR Type 1, 72 hours, CellTiter-Glo): >60 µg/mL
B1: AB4: anti-mutCALR antibody including VH and VL regions of antibody 8B2-H6 from WO2016087514 fused to human constant regions (antibody)
heavy: EVQLKQSGPELVKTGASVKISCKASGYSFTGYYIHWVKQSHGKSLEWIGYISCYNGASSYNQKFKGKATFTVDTSSSTAYMQFNSLTSGDSAVYYCASSMDYWGQGTSVTVSSASTKGPSVFPLAPSKSTSGGTAALGCLVKDYFPEPVTVSWNSGALTSGVHTFPAVLQSSGLYSLSSVVTVPSSSLGTQTYICNVNHKPSNTKVDKKVEPKSCDKTHTCPPCPAPELLGGPSVFLFPPKPKDTLMISRTPEVCVVVDVSHEDPEVKFNWYVDGVEVHNAKTKPREEQYNSTYRVVSVLTVLHQDWLNGKEYKCKVSNKALPAPIEKTISKAKGQPREPQVYTLPPSREEMTKNQVSLTCLVKGFYPSDIAVEWESNGQPNNYKTTPPVLDSDGSFFLYSKLTVDKSRWQQGNVFSCSVMHEALHNHYTQKSLSLSPG
light: DVVMTQTPLTLSVTIGQPASISCKSSQSLLDSDGKTYLNWLLQRPGQSPKRLIYLVSKLDSGVPDRFTGSGSGTDFTLKISRVEAEDLGVYHCWQGTHFPYTFGGGTKLEIKRTVAAPSVFIFPPSDQLKSGTASVVCLLNNFYPREAKVQWKVDNALQSGNSQESVTEQDSKDSTYSLSSTLTLSKADYEKHKVYACEVTHQGLSSPVTKSFNRGEC
inhibition of cell proliferation (72 hours, FIG. 21B, Table 16): no functional activity
